The source of these data is patent publication US20230212549A1 (3B PHARMACEUTICALS, published 2023).

Assay [1] deals with T1, fibroblast activation protein (FAP) on FAP-expressing human WI-38 fibroblasts (human, UniProt Q12884 1-760).
T1 construct: also called human FAP
Briefly: competitive FACS, WI-38 cells, vs Cy5 tracer m3; D = pIC50 <=6.0.

Assay [2] deals with Recombinant human FAP (R&D systems, #3715-SE) (human, UniProt Q12884 26-760). The experiment in a line: cell-based or functional assay.
Assay [3] deals with T2, human fibroblast activating protein (FAP) on WI-38 fibroblasts (human, UniProt Q12884 1-760).
T2 construct: FAP-expressing human WI-38 fibroblasts (ECACC)
Briefly: competitive FACS on WI-38 cells vs 3 nM Cy5-labeled peptide; pIC50 category B = 7.1-8.0.

In assay [4] the target is T3, Human recombinant FAP captured on anti-FAP antibody (SPR) (human, UniProt Q12884 26-760).
T3 construct: whole entry of human FAP named; also called rhFAP
The experiment in a line: SPR (Biacore), rhFAP captured by anti-FAP antibody; pKD category A = >8.0. (In general: SPR reads the build-up and loss of mass on a sensor chip optically.)

For assay [5], the target named is T2, human fibroblast activating protein …. The experiment in a line: competitive FACS on WI-38 cells vs 3 nM Cy5-labeled peptide; pIC50 category A = >8.0.

Where “and” joins values, the source holds several entries; their conditions need not be identical. Identical values can stand only once. Numbered stars: 1 amine (or outer) side, 2 acyl side, 3 side chain; on linkers, the order of the positions; unused ones are H or OH. Bridge positions count the residues as written; N and C are the ends. Square brackets hold non-standard residues; d marks the D form. Primed or numbered codes have the meaning given here. * marks the point of attachment. TBMB(SCH2CH2NH-DOTA) = O=C(O)CN1CCN(CC(=O)O)CCN(CC(=O)NCCSCc2cc(C[*:1])cc(C[*:2])c2)CCN(CC(=O)O)CC1; 3MeBn = 3-Methylbenzylidene (m-xylylene thioether bridge from α,α′-dibromo-m-xylene); Ttds(4) = spacer between chelator and peptide, O=C(CCC(=O)[*:2])NCCCOCCOCCOCCCN[*:1]; Opc = (S)-N-(pyrazinylcarbonyl)-ornithine, O=C(NCCC[C@H](N[*:1])C(=O)[*:2])c1cnccn1; N4Ac = 6-Carboxy-1,4,8,11-tetraazaundecane, an N4-chelator, NCCNCC(CNCCN)C(=O)*; NODAGA′ = 1,4,7-triazacyclononane-1-glutaric acid-4,7-diacetic acid chelator; Pro(trans-4-Ph) = O=C(O)[C@@H]1C[C@@H](c2ccccc2)CN1; nBu‑CAyl = n-butylaminocarbonyl, CCCCNC(=O)*; Pro(4,4-F2) = O=C(O)[C@@H]1CC(F)(F)CN1; mXylylene = c1cc(C[*:1])cc(C[*:2])c1; PPAc = 4-Carboxymethyl piperazine; Nle = CCCC[C@H](N)C(=O)O; Orn = NCCC[C@H](N)C(=O)O; PEG6′ = not defined here; Hexanoyl = CCCCCC(=O)*; Sar = CNCC(=O)O

B1: Hex-[Cys(3MeBn)-Pro-Pro-Opc-Glu-Phe-Cys]-NH2 (peptide)
peptide: Hexanoyl-CPP[Opc]EFC-NH2
modifications: linker 1-7 via mXylylene
SMILES: CCCCCC(=O)N[C@H]1CSCc2cccc(c2)CSC[C@@H](C(N)=O)NC(=O)[C@H](Cc2ccccc2)NC(=O)[C@H](CCC(=O)O)NC(=O)[C@H](CCCNC(=O)c2cnccn2)NC(=O)[C@@H]2CCCN2C(=O)[C@@H]2CCCN2C1=O
notes: also called 3BP-3355
For B1, the “pIC50 Category (FACS)” value in assay [1] is at most 6 pIC50. Also, in assay [2], the “pIC50 Category (Activity)” value was 6.1 pIC50 and 7 pIC50.

Consider {N4Ac-PPAc-PEG6′}-[Nle]CPPTEFC-OH (linker 2-8 via 3MeBn, also called 3BP-4781) [N4Ac-PPAc-PEG6-Nle-[C(3MeBn)-PPTEFC]-OH], for which, in assay [3], the pIC50 was 7.1 to 8 pic50.

As to {NODAGA′-Ttds(4)}-[Nle]CPPTEFC-OH (linker 2-8 via mXylylene, also called 3BP-4714) [NODAGA-Ttds-Nle-[C(3MeBn)-PPTEFC]-OH], in assay [3], the pIC50 is 7.1 to 8 pic50.

The molecule {N4Ac-PPAc-Ttds(4)}-[Nle]CPPTEFC-OH (linker 2-8 via 3MeBn, also called 3BP-4782) [N4Ac-PPAc-Ttds-Nle-[C(3MeBn)-PPTEFC]-OH] gave a pIC50 in assay [3] of 7.1 to 8 pic50.

Molecule {NODAGA′-Ttds(4)}-[Nle]CPPTEFC-NH2 (linker 2-8 via mXylylene, also called 3BP-4743) [NODAGA-Ttds-Nle-[C(3MeBn)-PPTEFC]-NH2] gave a pIC50 in assay [3] of 7.1 to 8 pic50.

B2: nBu-CAyl-[Cys(tMeBn(DOTA-AET))-Nmg-Pro-Thr-Gln-Phe-Cys]-OH (peptide)
peptide: {nBu‑CAyl}-C[Sar]PTQFC-OH
modifications: linker 1-7 via TBMB(SCH2CH2NH-DOTA)
SMILES: CCCCNC(=O)N[C@H]1CSCc2cc(CSCCNC(=O)CN3CCN(CC(=O)O)CCN(CC(=O)O)CCN(CC(=O)O)CC3)cc(c2)CSC[C@@H](C(=O)O)NC(=O)[C@H](Cc2ccccc2)NC(=O)[C@H](CCC(N)=O)NC(=O)[C@H]([C@@H](C)O)NC(=O)[C@@H]2CCCN2C(=O)CN(C)C1=O
notes: also called 3BP-4607
For B2, the pKD in assay [4] was over 8 pkd.

B3: Hex-[Cys(3MeBn)-Pro-Pro-Orn(Ac)-Glu-Phe-Cys]-NH2 (peptide)
peptide: Hexanoyl-CPP[Orn](Ac)EFC-NH2
modifications: linker 1-7 via mXylylene
SMILES: CCCCCC(=O)N[C@H]1CSCc2cccc(c2)CSC[C@@H](C(N)=O)NC(=O)[C@H](Cc2ccccc2)NC(=O)[C@H](CCC(=O)O)NC(=O)[C@H](CCCNC(C)=O)NC(=O)[C@@H]2CCCN2C(=O)[C@@H]2CCCN2C1=O
notes: also called 3BP-3372
As to B3, in assay [1], the “pIC50 Category (FACS)” value was at most 6 pIC50. In addition, the “pIC50 Category (Activity)” value in assay [2] was 6.1 pIC50 and 7 pIC50.

B4: Hex-[Cys(3MeBn)-Pro-4Dfp-Thr-Glu-Phe-Cys]-NH2 (peptide)
peptide: Hexanoyl-CP[Pro(4,4-F2)]TEFC-NH2
modifications: linker 1-7 via mXylylene
SMILES: CCCCCC(=O)N[C@H]1CSCc2cccc(c2)CSC[C@@H](C(N)=O)NC(=O)[C@H](Cc2ccccc2)NC(=O)[C@H](CCC(=O)O)NC(=O)[C@H]([C@@H](C)O)NC(=O)[C@@H]2CC(F)(F)CN2C(=O)[C@@H]2CCCN2C1=O
notes: also called 3BP-3365
Turning to B4, in assay [1], the “pIC50 Category (FACS)” value is at most 6 pIC50. For the same molecule, the “pIC50 Category (Activity)” value in assay [2] was 6.1 pIC50 and 7 pIC50.

B5: nBu-CAyl-[Cys(tMeBn(DOTA-AET))-Nmg-Pro-Thr-Gln-Phe-Cys]-NH2 (peptide)
peptide: {nBu‑CAyl}-C[Sar]PTQFC-NH2
modifications: linker 1-7 via TBMB(SCH2CH2NH-DOTA)
SMILES: CCCCNC(=O)N[C@H]1CSCc2cc(CSCCNC(=O)CN3CCN(CC(=O)O)CCN(CC(=O)O)CCN(CC(=O)O)CC3)cc(c2)CSC[C@@H](C(N)=O)NC(=O)[C@H](Cc2ccccc2)NC(=O)[C@H](CCC(N)=O)NC(=O)[C@H]([C@@H](C)O)NC(=O)[C@@H]2CCCN2C(=O)CN(C)C1=O
notes: also called 3BP-4621
With B5, the pKD in assay [4] is over 8 pkd.

{N4Ac-PPAc-Ttds(4)}-[Nle]CPPTEFCD-OH (linker 2-8 via 3MeBn, also called 3BP-4785) [N4Ac-PPAc-Ttds-Nle-[C(3MeBn)-PPTEFC]D-OH]: in assay [5], the pIC50 was over 8 pic50.

B6: Hex-[Cys(3MeBn)-Pro-Eay-Thr-Glu-Phe-Cys]-NH2 (peptide)
peptide: Hexanoyl-CP[Pro(trans-4-Ph)]TEFC-NH2
modifications: linker 1-7 via mXylylene
SMILES: CCCCCC(=O)N[C@H]1CSCc2cccc(c2)CSC[C@@H](C(N)=O)NC(=O)[C@H](Cc2ccccc2)NC(=O)[C@H](CCC(=O)O)NC(=O)[C@H]([C@@H](C)O)NC(=O)[C@@H]2C[C@@H](c3ccccc3)CN2C(=O)[C@@H]2CCCN2C1=O
notes: also called 3BP-3353
On to B6, for which the “pIC50 Category (FACS)” value in assay [1] was at most 6 pIC50. Further, in assay [2], the “pIC50 Category (Activity)” value is 6.1 pIC50 and 7 pIC50.
